Molecular target: TGFβRII (UniProt P37173)
Experiment: anti-FLAG IP, TGFβRII western blot
Conditions: reference: wild-type TGFβRI-FLAG; sites Y182

binding against the reference: weaker
Substance: TGFβRI (from UniProt P36897) Y182F

— PMC9091212
